# B1: soluble H-2K^b (K^bsol), heterodimer of truncated K^b heavy chain and murine β-2 microglobulin, purified empty from Drosophila cells (other)
# alpha: GPHSLRYFVTAVSRPGLGEPRYMEVGYVDDTEFVRFDSDAENPRYEPRARWMEQEGPEYWERETQKAKGNEQSFRVDLRTLLGYYNQSKGGSHTIQVISGCEVGSDGRLLRGYQQYAYDGCDYIALNEDLKTWTAADMAALITKHKWEQAGEAERLRAYLEGTCVEWLRRYLKNGNATLLRTDSPKAHVTHHSRPEDKVTLRCWALGFYPADITLTWQLNGEELIQDMELVETRPAGDGTFQKWASVVVPLGKEQYYTCHVYHQGLPEPLTLRW
# b2m: IQKTPQIQVYSRHPPENGKPNILNCYVTQFHPPHIEIQMLKNGKKIPKVEMSDMSFSKDWSFYILAHTEFTPTETDTYACRVKHASMAEPKTVYWDRDM
# notes: also called H-2K^b Sol; soluble K^b
# Molecular target: T1, VSV-7 (Vesicular stomatitis virus)
# T1 construct: also called GYVYQGL
# Test: competitive RIA against [^125I]VSV-8 on K^bsol, P30 gel filtration, 23° C.
binder,measurement,value
B1,Kd,53 nM
